Source: patent US20250152729A1
Read-outs that look alike come from different tables or passages of the source.

Columns and labels:
[1] = target: BCMA (TNFRSF17) on NCI-H929 cells (UniProt Q02223); assay: cell-based or functional assay
[2] = target: BCMA (TNFRSF17) on NCI-H929 cells (UniProt Q02223); assay: cell-based or functional assay; remark: listed apart in the source

Sequence of BCMA (TNFRSF17) on NCI-H929 cells (Q02223 whole entry): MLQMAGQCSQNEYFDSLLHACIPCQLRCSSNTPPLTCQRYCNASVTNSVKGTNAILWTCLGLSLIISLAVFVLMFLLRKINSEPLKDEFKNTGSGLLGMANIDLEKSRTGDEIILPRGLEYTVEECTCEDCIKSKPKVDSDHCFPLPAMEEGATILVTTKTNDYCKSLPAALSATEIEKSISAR

EC50 (nM), Fab-pHast internalisation into NCI-H929 [1]: 11 nM
Fold-Change at 6 hours (10 nM), Fab-pHast internalisation [1]: 37 fold
Substance: J6M0 anti-BCMA human Alya IgG1 conjugated to McMMAF (antibody)
Average NCI-H929 IC50 [pM], cell kill [1]: 74.5 pM
Average NCI-H929 IC50 [pM], cell kill [2]: 110 pM
